From PMC8834124, “Enzymatic Preparation of Gentiooligosaccharides by a Thermophilic and Thermostable β-Glucosidase at a High Substrate Concentration” (Foods, 2022)

Columns and labels:
Experiment in all cases: purified protein
Type in all cases: biochemical, Thermotoga sp. KOL6
[1] = tested on: OC[C@H]1O[C@@H](OC[C@H]2OC(O)[C@H](O)[C@@H](O)[C@@H]2O)[C@H](O)[C@@H](O)[C@@H]1O
[2] = tested on: OC[C@H]1O[C@@H](O[C@H]2[C@H](O)[C@@H](CO)OC(O)[C@@H]2O)[C@H](O)[C@@H](O)[C@@H]1O
[3] = tested on: OC[C@H]1O[C@@H](O[C@H]2C(O)O[C@H](CO)[C@@H](O)[C@@H]2O)[C@H](O)[C@@H](O)[C@@H]1O
[4] = tested on: O=[N+]([O-])c1ccc(O[C@@H]2O[C@H](CO)[C@@H](O)[C@H](O)[C@H]2O)cc1

β-glucosidase TsBgl1 (Thermotoga sp. KOL6)
Km [1]: 3680 µM | kcat [1]: 240 s⁻¹ | kcat/Km [1]: 65200 M⁻¹ s⁻¹ | Km [2]: 2170 µM | kcat [2]: 295 s⁻¹ | kcat/Km [2]: 136000 M⁻¹ s⁻¹ | Km [3]: 3950 µM | kcat [3]: 218 s⁻¹ | kcat/Km [3]: 55300 M⁻¹ s⁻¹ | Km [4]: 240 µM | kcat [4]: 124 s⁻¹ | kcat/Km [4]: 509000 M⁻¹ s⁻¹
